From the supplement of paper PMC10567573

B1: NR2F2 (parent)
chain: VAHVESLQEKSQCALEEYVRSQYP
B2: MNAT1 (parent)
chain: LEEALYEYQPLQIETYGPHVPELE

Variants of: B1
Experiment: protein stability index of a GFP-peptide fusion (GPS, HEK-293T) (PSI 1-6); higher = more stable
Conditions: c terminus: a fixed tail appended
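Note: lentivirally expressed fusions sorted by FACS into six bins by GFP to DsRed ratio, PSI derived from sequencing read proportions per bin multiplied by bin number.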

Variant	protein stability index
VAHVESLQEKSQCALEEYVRSQYL	3.15
VAHVESLQEKSQCALEEYVRSQYW	2.45
VAHVESLQEKSQCALEEYVRSQYI	3.19
VAHVESLQEKSQCALEEYVRSQYY	2.68
VAHVESLQEKSQCALEEYVRSQYH	3.33
VAHVESLQEKSQCALEEYVRSQYS	3.47
VAHVESLQEKSQCALEEYVRSQYV	3.06
VAHVESLQEKSQCALEEYVRSQYQ	3.35
VAHVESLQEKSQCALEEYVRSQYN	3.94
VAHVESLQEKSQCALEEYVRSQYF	2.62
VAHVESLQEKSQCALEEYVRSQYK	3.93
VAHVESLQEKSQCALEEYVRSQYA	3.73
VAHVESLQEKSQCALEEYVRSQYT	3.5
VAHVESLQEKSQCALEEYVRSQYE	3.94
VAHVESLQEKSQCALEEYVRSQYG	3.72
VAHVESLQEKSQCALEEYVRSQYD	4.29
VAHVESLQEKSQCALEEYVRSQYR	4.01
VAHVESLQEKSQCALEEYVRSQYM	3.22

Variant	protein stability index
VAHVESLQEKSQCALEEYVRSQYC	3.14
VAHVESLQEKSQCALEEYVRSQSP	4.36
VAHVESLQEKSQCALEEYVRSQIP	3.9
VAHVESLQEKSQCALEEYVRSQQP	4.25
VAHVESLQEKSQCALEEYVRSQHP	3.88
VAHVESLQEKSQCALEEYVRSQKP	3.98
VAHVESLQEKSQCALEEYVRSQNP	4.74
VAHVESLQEKSQCALEEYVRSQLP	3.75
VAHVESLQEKSQCALEEYVRSQGP	4.14
VAHVESLQEKSQCALEEYVRSQMP	3.46
VAHVESLQEKSQCALEEYVRSQFP	3.43
VAHVESLQEKSQCALEEYVRSQWP	2.7
VAHVESLQEKSQCALEEYVRSQVP	3.76
VAHVESLQEKSQCALEEYVRSQRP	4.51
VAHVESLQEKSQCALEEYVRSQTP	4.01
VAHVESLQEKSQCALEEYVRSQEP	4.71
VAHVESLQEKSQCALEEYVRSQPP	4.15

Variants of: B2
Experiment: as above
Conditions: c terminus: a fixed tail appended

Variant	protein stability index
LEEALYKYQPLQIETYGPHVPELE	1.87
LEEALYLYQPLQIETYGPHVPELE	2.25
LEEALYGYQPLQIETYGPHVPELE	3.53
LEEALYCYQPLQIETYGPHVPELE	1.92
LEEALYAYQPLQIETYGPHVPELE	2.19
LEEALYIYQPLQIETYGPHVPELE	2.44
LEEALYDYQPLQIETYGPHVPELE	3.92
LEEALYPYQPLQIETYGPHVPELE	2.71
LEEALYMYQPLQIETYGPHVPELE	2.19
LEEALYYYQPLQIETYGPHVPELE	1.98
LEEALYVYQPLQIETYGPHVPELE	1.73
LEEALYFYQPLQIETYGPHVPELE	1.87
LEEALYNYQPLQIETYGPHVPELE	2.73
LEEALYQYQPLQIETYGPHVPELE	2.28
LEEALYHYQPLQIETYGPHVPELE	2.11
LEEALYTYQPLQIETYGPHVPELE	2.68
LEEALYSYQPLQIETYGPHVPELE	2.76
LEEALYRYQPLQIETYGPHVPELE	1.73
LEEALYWYQPLQIETYGPHVPELE	2.1
LLEALYEYQPLQIETYGPHVPELE	2.96
LPEALYEYQPLQIETYGPHVPELE	3.7
LKEALYEYQPLQIETYGPHVPELE	2.47
LGEALYEYQPLQIETYGPHVPELE	2.24
LAEALYEYQPLQIETYGPHVPELE	2.26
LVEALYEYQPLQIETYGPHVPELE	2.55
LHEALYEYQPLQIETYGPHVPELE	1.73

Variant	protein stability index
LNEALYEYQPLQIETYGPHVPELE	2.4
LWEALYEYQPLQIETYGPHVPELE	2.34
LMEALYEYQPLQIETYGPHVPELE	2.71
LFEALYEYQPLQIETYGPHVPELE	1.71
LIEALYEYQPLQIETYGPHVPELE	2.67
LDEALYEYQPLQIETYGPHVPELE	3.89
LYEALYEYQPLQIETYGPHVPELE	1.71
LQEALYEYQPLQIETYGPHVPELE	1.71
LSEALYEYQPLQIETYGPHVPELE	2.4
LCEALYEYQPLQIETYGPHVPELE	3.03
LTEALYEYQPLQIETYGPHVPELE	2.2
LREALYEYQPLQIETYGPHVPELE	3.28
KEEALYEYQPLQIETYGPHVPELE	4.81
FEEALYEYQPLQIETYGPHVPELE	3.81
MEEALYEYQPLQIETYGPHVPELE	3.18
YEEALYEYQPLQIETYGPHVPELE	4.45
WEEALYEYQPLQIETYGPHVPELE	4
NEEALYEYQPLQIETYGPHVPELE	4.72
AEEALYEYQPLQIETYGPHVPELE	5.28
EEEALYEYQPLQIETYGPHVPELE	5.1
IEEALYEYQPLQIETYGPHVPELE	3.45
PEEALYEYQPLQIETYGPHVPELE	4.88
DEEALYEYQPLQIETYGPHVPELE	4.8
QEEALYEYQPLQIETYGPHVPELE	5.08
GEEALYEYQPLQIETYGPHVPELE	5.15
CEEALYEYQPLQIETYGPHVPELE	4.72

Variant	protein stability index
HEEALYEYQPLQIETYGPHVPELE	4.98
SEEALYEYQPLQIETYGPHVPELE	5.15
VEEALYEYQPLQIETYGPHVPELE	4.15
TEEALYEYQPLQIETYGPHVPELE	5.14
REEALYEYQPLQIETYGPHVPELE	4.12
LEEALVEYQPLQIETYGPHVPELE	3.33
LEEALEEYQPLQIETYGPHVPELE	2.74
LEEALLEYQPLQIETYGPHVPELE	3.43
LEEALPEYQPLQIETYGPHVPELE	5.47
LEEALMEYQPLQIETYGPHVPELE	3
LEEALAEYQPLQIETYGPHVPELE	2.3
LEEALTEYQPLQIETYGPHVPELE	3.56
LEEALQEYQPLQIETYGPHVPELE	2.81
LEEALREYQPLQIETYGPHVPELE	2.27
LEEALGEYQPLQIETYGPHVPELE	3.43
LEEALKEYQPLQIETYGPHVPELE	2.46
LEEALIEYQPLQIETYGPHVPELE	2.58
LEEALDEYQPLQIETYGPHVPELE	4.36
LEEALWEYQPLQIETYGPHVPELE	2.39
LEEALHEYQPLQIETYGPHVPELE	3.11
LEEALCEYQPLQIETYGPHVPELE	2.61
LEEALFEYQPLQIETYGPHVPELE	2.8
LEEALNEYQPLQIETYGPHVPELE	3.7
LEEALSEYQPLQIETYGPHVPELE	2.41
LEEELYEYQPLQIETYGPHVPELE	4.56
LEEYLYEYQPLQIETYGPHVPELE	3.51

Variant	protein stability index
LEESLYEYQPLQIETYGPHVPELE	4.67
LEEQLYEYQPLQIETYGPHVPELE	4.89
LEEKLYEYQPLQIETYGPHVPELE	4.33
LEEILYEYQPLQIETYGPHVPELE	2.88
LEEDLYEYQPLQIETYGPHVPELE	4.84
LEEPLYEYQPLQIETYGPHVPELE	4.28
LEETLYEYQPLQIETYGPHVPELE	4.27
LEEHLYEYQPLQIETYGPHVPELE	4.59
LEELLYEYQPLQIETYGPHVPELE	3.57
LEEWLYEYQPLQIETYGPHVPELE	2.96
LEECLYEYQPLQIETYGPHVPELE	3.81
LEENLYEYQPLQIETYGPHVPELE	4.61
LEEMLYEYQPLQIETYGPHVPELE	3.72
LEERLYEYQPLQIETYGPHVPELE	4.81
LEEGLYEYQPLQIETYGPHVPELE	4.4
LEEFLYEYQPLQIETYGPHVPELE	3.1
LEEVLYEYQPLQIETYGPHVPELE	1.91
LEEAWYEYQPLQIETYGPHVPELE	3.89
LEEAVYEYQPLQIETYGPHVPELE	4.64
LEEAPYEYQPLQIETYGPHVPELE	5.19
LEEAEYEYQPLQIETYGPHVPELE	4.58
LEEAGYEYQPLQIETYGPHVPELE	4.8
LEEANYEYQPLQIETYGPHVPELE	4.81
LEEAIYEYQPLQIETYGPHVPELE	4.87
LEEAHYEYQPLQIETYGPHVPELE	4.96
LEEAAYEYQPLQIETYGPHVPELE	4.97

Variant	protein stability index
LEEAMYEYQPLQIETYGPHVPELE	4.64
LEEASYEYQPLQIETYGPHVPELE	4.59
LEEAFYEYQPLQIETYGPHVPELE	4.33
LEEARYEYQPLQIETYGPHVPELE	4.32
LEEAKYEYQPLQIETYGPHVPELE	5.06
LEEACYEYQPLQIETYGPHVPELE	4.71
LEEAQYEYQPLQIETYGPHVPELE	5.38
LEEADYEYQPLQIETYGPHVPELE	5.12
LEEAYYEYQPLQIETYGPHVPELE	4.46
LEEATYEYQPLQIETYGPHVPELE	4.9
LEEALYEYAPLQIETYGPHVPELE	2.86
LEEALYESQPLQIETYGPHVPELE	5.53
LEEALYEQQPLQIETYGPHVPELE	5.5
LEEALYEHQPLQIETYGPHVPELE	4.27
LEEALYECQPLQIETYGPHVPELE	4.91
LEEALYEPQPLQIETYGPHVPELE	5.25
LEEALYETQPLQIETYGPHVPELE	5.38
LEEALYEMQPLQIETYGPHVPELE	4.71
LEEALYEVQPLQIETYGPHVPELE	4.98
LEEALYERQPLQIETYGPHVPELE	5.44
LEEALYEGQPLQIETYGPHVPELE	5.41
LEEALYEKQPLQIETYGPHVPELE	5.14
LEEALYEDQPLQIETYGPHVPELE	5.23
LEEALYEEQPLQIETYGPHVPELE	5.4
LEEALYEAQPLQIETYGPHVPELE	5.3
LEEALYEIQPLQIETYGPHVPELE	4.92

Variant	protein stability index
LEEALYEFQPLQIETYGPHVPELE	3.75
LEEALYELQPLQIETYGPHVPELE	4.75
LEEALYENQPLQIETYGPHVPELE	5.74
LEEALYEWQPLQIETYGPHVPELE	3.59
LEIALYEYQPLQIETYGPHVPELE	2.13
LEDALYEYQPLQIETYGPHVPELE	3.19
LEQALYEYQPLQIETYGPHVPELE	3
LEFALYEYQPLQIETYGPHVPELE	3.39
LECALYEYQPLQIETYGPHVPELE	2.42
LETALYEYQPLQIETYGPHVPELE	3.16
LEMALYEYQPLQIETYGPHVPELE	2.19
LEKALYEYQPLQIETYGPHVPELE	2.64
LEPALYEYQPLQIETYGPHVPELE	4.05
LEHALYEYQPLQIETYGPHVPELE	3.16
LEYALYEYQPLQIETYGPHVPELE	2.04
LERALYEYQPLQIETYGPHVPELE	2.79
LEAALYEYQPLQIETYGPHVPELE	2.43
LELALYEYQPLQIETYGPHVPELE	2
LESALYEYQPLQIETYGPHVPELE	3.63
LEGALYEYQPLQIETYGPHVPELE	3.41
LEVALYEYQPLQIETYGPHVPELE	1.74
LENALYEYQPLQIETYGPHVPELE	3.67
LEWALYEYQPLQIETYGPHVPELE	1.45
